Test results: PMC8602628, “Phosphorylation activates the yeast small heat shock protein Hsp26 by weakening domain contacts in the oligomer ensemble” (Nature Communications, 2021)

T1: authentic Hsp26 from yeast (S. cerevisiae), P15992
T1 chain: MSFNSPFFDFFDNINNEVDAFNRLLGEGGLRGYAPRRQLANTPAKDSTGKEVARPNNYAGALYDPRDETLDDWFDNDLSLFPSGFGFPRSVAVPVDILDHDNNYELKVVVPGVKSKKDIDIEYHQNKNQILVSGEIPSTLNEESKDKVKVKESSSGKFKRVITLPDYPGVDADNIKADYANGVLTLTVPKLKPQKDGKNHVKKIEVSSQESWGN


Columns and labels:
[1] = target: the molecule itself; assay: cryo-EM structure; 2.0-3.3 mg/ml protein plunge-frozen, Titan Krios 300 kV, K2; 2D class averages (IMAGIC) compared with 40mer reprojections, 3D reconstruction in cryoSPARC
[2] = target: Hsp26 FRET complex (5 µM LYI-labeled and 5 µM AIAS-labeled Hsp26 S5C, pre-formed at 40 °C) (S. cerevisiae) (UniProt P15992); assay: FRET or BRET; subunit exchange: unlabeled Hsp26 in 39-fold molar excess added to the pre-formed FRET complex, 40 °C, decrease of acceptor fluorescence at 520 nm for 1500 s, exponential fit, kexchange = 1/t1
[3] = target: the molecule itself; assay: CD thermal transition; far-UV CD at 218 nm, 12.5 µM protein in PBS, 20 to 90 °C at 1 K/min; the lower transition is taken as the disassembly of the oligomer
[4] = target: the molecule itself; assay: cryo-EM structure; S207E dataset; asymmetric heterogeneous refinement (3D classification) in cryoSPARC into 13 classes; class C13
[5] = target: the molecule itself; assay: AUC; sedimentation velocity, 23 µM protein, 35,000 rpm (98,500 × g), 20 °C, PBS, absorbance at 280 nm, c(S) distribution in SEDFIT
[6] = target: the molecule itself; assay: SEC; analytical SEC-HPLC, Superdex200 increase 10/300GL, PBS, 0.5 ml/min, RT, 20 µl of a 20 µM protein solution loaded
[7] = target: T1, authentic Hsp26 from yeast (S. …); assay: cryo-EM structure; 2.0-3.3 mg/ml protein plunge-frozen, Titan Krios 300 kV, K2; 2D class averages (IMAGIC) compared with 40mer reprojections, 3D reconstruction in cryoSPARC; conditions: remark: other sources report otherwise

exchange constant [2] [s⁻¹] | Binder | dissociation temperature of the oligomer [3] [°C] | further results
0.0032 | Hsp26 wild-type (WT) protein, recombinant (natural protein, S. cerevisiae, Hsp26, small heat shock protein of S. cerevisiae; HSP26 cloned into pQE60 with NcoI and HindIII, which adds a glycine after the start methionine; Forms an ensemble of oligomers, predominantly a 40mer; also called Hsp26 WT; source: E. coli HB101, purified (Q-Sepharose, Superdex200, Resource Q)) MGSFNSPFFDFFDNINNEVDAFNRLLGEGGLRGYAPRRQLANTPAKDSTGKEVARPNNYAGALYDPRDETLDDWFDNDLSLFPSGFGFPRSVAVPVDILDHDNNYELKVVVPGVKSKKDIDIEYHQNKNQILVSGEIPSTLNEESKDKVKVKESSSGKFKRVITLPDYPGVDADNIKADYANGVLTLTVPKLKPQKDGKNHVKKIEVSSQESWGN | 42.1 | fraction of particles representing 40mer views [1]: 48.9%; stoichiometry N [1]: 40
 | Hsp26 S207E (natural protein, S. cerevisiae, UniProt P15992 1-214, looked up, an additional glycine stands after the start methionine; phospho-mimetic mutant of the C-terminal region; predominant species a 40mer, one 3D class a 42mer; source: E. coli HB101, purified (Q-Sepharose, Superdex200, Resource Q)) MGSFNSPFFDFFDNINNEVDAFNRLLGEGGLRGYAPRRQLANTPAKDSTGKEVARPNNYAGALYDPRDETLDDWFDNDLSLFPSGFGFPRSVAVPVDILDHDNNYELKVVVPGVKSKKDIDIEYHQNKNQILVSGEIPSTLNEESKDKVKVKESSSGKFKRVITLPDYPGVDADNIKADYANGVLTLTVPKLKPQKDGKNHVKKIEVESQESWGN |  | stoichiometry N [4]: 42
 | Hsp26 T42E (natural protein, S. cerevisiae, Hsp26 of S. cerevisiae, phospho-mimetic mutant in pQE60::HSP26; source: E. coli HB101, purified (Q-Sepharose, Superdex200, Resource Q)) MGSFNSPFFDFFDNINNEVDAFNRLLGEGGLRGYAPRRQLANEPAKDSTGKEVARPNNYAGALYDPRDETLDDWFDNDLSLFPSGFGFPRSVAVPVDILDHDNNYELKVVVPGVKSKKDIDIEYHQNKNQILVSGEIPSTLNEESKDKVKVKESSSGKFKRVITLPDYPGVDADNIKADYANGVLTLTVPKLKPQKDGKNHVKKIEVSSQESWGN | < 40 | 
 | Hsp26 S47E (natural protein, S. cerevisiae, Hsp26 of S. cerevisiae, phospho-mimetic mutant in pQE60::HSP26; source: E. coli HB101, purified (Q-Sepharose, Superdex200, Resource Q)) MGSFNSPFFDFFDNINNEVDAFNRLLGEGGLRGYAPRRQLANTPAKDETGKEVARPNNYAGALYDPRDETLDDWFDNDLSLFPSGFGFPRSVAVPVDILDHDNNYELKVVVPGVKSKKDIDIEYHQNKNQILVSGEIPSTLNEESKDKVKVKESSSGKFKRVITLPDYPGVDADNIKADYANGVLTLTVPKLKPQKDGKNHVKKIEVSSQESWGN |  | binding result [5]: binds
 | Hsp26 T48E (natural protein, S. cerevisiae, Hsp26 of S. cerevisiae, phospho-mimetic mutant in pQE60::HSP26; source: E. coli HB101, purified (Q-Sepharose, Superdex200, Resource Q)) MGSFNSPFFDFFDNINNEVDAFNRLLGEGGLRGYAPRRQLANTPAKDSEGKEVARPNNYAGALYDPRDETLDDWFDNDLSLFPSGFGFPRSVAVPVDILDHDNNYELKVVVPGVKSKKDIDIEYHQNKNQILVSGEIPSTLNEESKDKVKVKESSSGKFKRVITLPDYPGVDADNIKADYANGVLTLTVPKLKPQKDGKNHVKKIEVSSQESWGN | < 40 | 
0.004 | Hsp26 S90E (natural protein, S. cerevisiae, Hsp26 of S. cerevisiae, phospho-mimetic mutant in pQE60::HSP26; source: E. coli HB101, purified (Q-Sepharose, Superdex200, Resource Q)) MGSFNSPFFDFFDNINNEVDAFNRLLGEGGLRGYAPRRQLANTPAKDSTGKEVARPNNYAGALYDPRDETLDDWFDNDLSLFPSGFGFPREVAVPVDILDHDNNYELKVVVPGVKSKKDIDIEYHQNKNQILVSGEIPSTLNEESKDKVKVKESSSGKFKRVITLPDYPGVDADNIKADYANGVLTLTVPKLKPQKDGKNHVKKIEVSSQESWGN | < 40 | 
 | Hsp26 S211E (natural protein, S. cerevisiae, Hsp26 of S. cerevisiae, phospho-mimetic mutant in pQE60::HSP26; source: E. coli HB101, purified (Q-Sepharose, Superdex200, Resource Q)) MGSFNSPFFDFFDNINNEVDAFNRLLGEGGLRGYAPRRQLANTPAKDSTGKEVARPNNYAGALYDPRDETLDDWFDNDLSLFPSGFGFPRSVAVPVDILDHDNNYELKVVVPGVKSKKDIDIEYHQNKNQILVSGEIPSTLNEESKDKVKVKESSSGKFKRVITLPDYPGVDADNIKADYANGVLTLTVPKLKPQKDGKNHVKKIEVSSQEEWGN |  | binding result [6]: binds
0.0036 | Hsp26 T163E (natural protein, S. cerevisiae, Hsp26 of S. cerevisiae, phospho-mimetic mutant in pQE60::HSP26; source: E. coli HB101, purified (Q-Sepharose, Superdex200, Resource Q)) MGSFNSPFFDFFDNINNEVDAFNRLLGEGGLRGYAPRRQLANTPAKDSTGKEVARPNNYAGALYDPRDETLDDWFDNDLSLFPSGFGFPRSVAVPVDILDHDNNYELKVVVPGVKSKKDIDIEYHQNKNQILVSGEIPSTLNEESKDKVKVKESSSGKFKRVIELPDYPGVDADNIKADYANGVLTLTVPKLKPQKDGKNHVKKIEVSSQESWGN | 34.6 ± 0.9 | 
0.0032 | Hsp26 S144E (natural protein, S. cerevisiae, Hsp26 of S. cerevisiae, phospho-mimetic mutant in pQE60::HSP26; source: E. coli HB101, purified (Q-Sepharose, Superdex200, Resource Q)) MGSFNSPFFDFFDNINNEVDAFNRLLGEGGLRGYAPRRQLANTPAKDSTGKEVARPNNYAGALYDPRDETLDDWFDNDLSLFPSGFGFPRSVAVPVDILDHDNNYELKVVVPGVKSKKDIDIEYHQNKNQILVSGEIPSTLNEEEKDKVKVKESSSGKFKRVITLPDYPGVDADNIKADYANGVLTLTVPKLKPQKDGKNHVKKIEVSSQESWGN | 35.1 ± 0.1 | 
 | Hsp26 S207E (natural protein, S. cerevisiae, Hsp26 of S. cerevisiae, phospho-mimetic mutant in pQE60::HSP26; source: E. coli HB101, purified (Q-Sepharose, Superdex200, Resource Q)) MGSFNSPFFDFFDNINNEVDAFNRLLGEGGLRGYAPRRQLANTPAKDSTGKEVARPNNYAGALYDPRDETLDDWFDNDLSLFPSGFGFPRSVAVPVDILDHDNNYELKVVVPGVKSKKDIDIEYHQNKNQILVSGEIPSTLNEESKDKVKVKESSSGKFKRVITLPDYPGVDADNIKADYANGVLTLTVPKLKPQKDGKNHVKKIEVESQESWGN |  | fraction of particles representing 40mer views [1]: 34.2%; stoichiometry N [1]: 40
0.004 | Hsp26 S47E/T48E (natural protein, S. cerevisiae, Hsp26 of S. cerevisiae, phospho-mimetic double mutant in pQE60::HSP26; source: E. coli HB101, purified (Q-Sepharose, Superdex200, Resource Q)) MGSFNSPFFDFFDNINNEVDAFNRLLGEGGLRGYAPRRQLANTPAKDEEGKEVARPNNYAGALYDPRDETLDDWFDNDLSLFPSGFGFPRSVAVPVDILDHDNNYELKVVVPGVKSKKDIDIEYHQNKNQILVSGEIPSTLNEESKDKVKVKESSSGKFKRVITLPDYPGVDADNIKADYANGVLTLTVPKLKPQKDGKNHVKKIEVSSQESWGN | 36.8 | fraction of particles representing 40mer views [1]: 7.3%; stoichiometry N [1]: 40
0.0036 | Hsp26 S208E/S211E (natural protein, S. cerevisiae, Hsp26 of S. cerevisiae, phospho-mimetic double mutant in pQE60::HSP26; also called CTR double mutant; source: E. coli HB101, purified (Q-Sepharose, Superdex200, Resource Q)) MGSFNSPFFDFFDNINNEVDAFNRLLGEGGLRGYAPRRQLANTPAKDSTGKEVARPNNYAGALYDPRDETLDDWFDNDLSLFPSGFGFPRSVAVPVDILDHDNNYELKVVVPGVKSKKDIDIEYHQNKNQILVSGEIPSTLNEESKDKVKVKESSSGKFKRVITLPDYPGVDADNIKADYANGVLTLTVPKLKPQKDGKNHVKKIEVSEQEEWGN | < 40 | 
 | Hsp26 S208E (natural protein, S. cerevisiae, Hsp26 of S. cerevisiae, phospho-mimetic mutant in pQE60::HSP26; source: E. coli HB101, purified (Q-Sepharose, Superdex200, Resource Q)) MGSFNSPFFDFFDNINNEVDAFNRLLGEGGLRGYAPRRQLANTPAKDSTGKEVARPNNYAGALYDPRDETLDDWFDNDLSLFPSGFGFPRSVAVPVDILDHDNNYELKVVVPGVKSKKDIDIEYHQNKNQILVSGEIPSTLNEESKDKVKVKESSSGKFKRVITLPDYPGVDADNIKADYANGVLTLTVPKLKPQKDGKNHVKKIEVSEQESWGN | < 40 | 
 | authentic Hsp26 from yeast, P15992 1-214 (natural protein) MSFNSPFFDFFDNINNEVDAFNRLLGEGGLRGYAPRRQLANTPAKDSTGKEVARPNNYAGALYDPRDETLDDWFDNDLSLFPSGFGFPRSVAVPVDILDHDNNYELKVVVPGVKSKKDIDIEYHQNKNQILVSGEIPSTLNEESKDKVKVKESSSGKFKRVITLPDYPGVDADNIKADYANGVLTLTVPKLKPQKDGKNHVKKIEVSSQESWGN |  | stoichiometry N [7]: 40
